Here are results for five molecules from patent US20230037815A1 (CULLINAN THERAPEUTICS, published 2023).

Test [1] concerns the target human CD3 (human). Put plainly: BLI, Octet method of WO2018208864A1. For orientation: BLI is a label-free optical method that tracks binding on a fibre tip over time.
In test [2] the target is human CD3 (human). Put plainly: SPR, BiaCore method of WO2018208864A1. For orientation: In SPR one partner is held on a chip, and binding of the other changes the refractive index at the surface.
Chain of human CD3 (human) (chain, as listed by the source): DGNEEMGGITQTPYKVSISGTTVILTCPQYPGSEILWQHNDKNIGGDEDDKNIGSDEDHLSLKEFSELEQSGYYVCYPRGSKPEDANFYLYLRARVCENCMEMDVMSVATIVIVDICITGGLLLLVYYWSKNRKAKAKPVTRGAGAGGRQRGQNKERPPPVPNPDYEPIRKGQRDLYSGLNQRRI
The target of test [3] is human CD3 (human). Put plainly: method not given.
Test [4] deals with T1, dimeric CD19 extracellular domain fused with human IgG1 Fc (human, UniProt P15391 20-291, limits assumed).
T1 construct: extracellular domain; also called dimeric CD19 protein; not shown: human IgG1 Fc
T1 sequence (looked up): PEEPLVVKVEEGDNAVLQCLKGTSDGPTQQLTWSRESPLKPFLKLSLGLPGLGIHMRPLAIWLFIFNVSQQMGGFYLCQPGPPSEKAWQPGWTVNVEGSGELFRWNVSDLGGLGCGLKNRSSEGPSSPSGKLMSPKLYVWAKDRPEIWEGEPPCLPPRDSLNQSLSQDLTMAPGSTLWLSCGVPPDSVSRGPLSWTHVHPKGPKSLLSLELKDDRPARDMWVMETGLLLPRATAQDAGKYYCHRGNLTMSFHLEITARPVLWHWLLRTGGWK
Put plainly: ForteBio instrument (called SPR in the text), dimeric CD19 extracellular domain-human IgG1 Fc; dimeric CD19 extracellular domain fused with human IgG1 Fc. The method, then:
(§1) As noted above, some of the constructs produced contained an anti-CD19 scFv having the amino acid sequence set forth in SEQ ID NO: 9 or 18. The binding affinity of the two CD19 binding domains to CD19 were measured by SPR using a monomeric CD19 extracellular domain and a dimeric CD19 extracellular domain fused with human IgG1 Fc. Binding kinetic parameters were measured using a ForteBio instrument generally as previously described (see, Estep et al. (2013) MAbs, 5(2): 270-78).

The target in test [5] is T2, monomeric CD19 extracellular domain (UniProt P15391 20-291, limits assumed).
T2 construct: extracellular domain; also called monomeric CD19 protein
T2 sequence (looked up): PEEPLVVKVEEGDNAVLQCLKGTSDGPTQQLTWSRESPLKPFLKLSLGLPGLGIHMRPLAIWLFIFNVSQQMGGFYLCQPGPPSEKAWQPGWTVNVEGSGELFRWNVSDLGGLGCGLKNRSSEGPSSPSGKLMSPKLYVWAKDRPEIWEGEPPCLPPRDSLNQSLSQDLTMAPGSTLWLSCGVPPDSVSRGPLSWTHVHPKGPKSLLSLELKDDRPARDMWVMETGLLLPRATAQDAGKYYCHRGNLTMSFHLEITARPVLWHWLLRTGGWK
Put plainly: ForteBio instrument (called SPR in the text), monomeric CD19 extracellular domain; monomeric CD19 protein. As for the experimental part: as §1

Test [6] addresses T3, mouse serum albumin (mouse, UniProt P07724 25-608).
T3 construct: also called MSA
Put plainly: ratio of the Octet KD for mouse serum albumin to that for human serum albumin.

A further test concerns the target cynomolgus serum albumin (cynomolgus, UniProt A2V9Z4 25-608). Put plainly: Octet HTX (ForteBio), HCAb on AHC sensor, 1:1 fit.
The next test deals with T4, human serum albumin (human, UniProt P02768 25-609).
T4 construct: also called HSA
Put plainly: Octet HTX (ForteBio), HCAb on AHC sensor, 1:1 fit.

The target of test [7] is T3, mouse serum albumin. Put plainly: Octet HTX (ForteBio), HCAb on AHC sensor, 1:1 fit.
Another test has as its target protein A (UniProt P38507 37-327). Put plainly: Octet HTX (ForteBio), HCAb on AHC sensor; legend: no binding was detected under the conditions of this assay.

T3 sequence (P07724 25-608 limits assumed): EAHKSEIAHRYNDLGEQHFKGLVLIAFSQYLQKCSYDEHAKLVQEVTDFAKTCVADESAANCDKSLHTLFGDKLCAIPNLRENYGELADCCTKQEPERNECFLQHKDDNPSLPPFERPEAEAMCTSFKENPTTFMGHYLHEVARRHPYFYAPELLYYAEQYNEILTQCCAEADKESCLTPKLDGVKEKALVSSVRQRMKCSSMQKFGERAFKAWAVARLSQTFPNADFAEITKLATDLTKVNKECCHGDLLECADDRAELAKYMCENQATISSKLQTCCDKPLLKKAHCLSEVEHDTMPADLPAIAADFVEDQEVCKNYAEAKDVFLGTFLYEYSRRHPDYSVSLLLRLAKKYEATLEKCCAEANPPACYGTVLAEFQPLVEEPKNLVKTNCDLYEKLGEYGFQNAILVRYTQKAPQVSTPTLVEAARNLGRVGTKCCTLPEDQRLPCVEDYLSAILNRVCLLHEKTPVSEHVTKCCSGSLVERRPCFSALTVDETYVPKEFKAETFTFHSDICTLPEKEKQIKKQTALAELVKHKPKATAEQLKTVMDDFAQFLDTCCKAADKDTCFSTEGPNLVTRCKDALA
Chain of cynomolgus serum albumin (A2V9Z4 25-608 limits assumed): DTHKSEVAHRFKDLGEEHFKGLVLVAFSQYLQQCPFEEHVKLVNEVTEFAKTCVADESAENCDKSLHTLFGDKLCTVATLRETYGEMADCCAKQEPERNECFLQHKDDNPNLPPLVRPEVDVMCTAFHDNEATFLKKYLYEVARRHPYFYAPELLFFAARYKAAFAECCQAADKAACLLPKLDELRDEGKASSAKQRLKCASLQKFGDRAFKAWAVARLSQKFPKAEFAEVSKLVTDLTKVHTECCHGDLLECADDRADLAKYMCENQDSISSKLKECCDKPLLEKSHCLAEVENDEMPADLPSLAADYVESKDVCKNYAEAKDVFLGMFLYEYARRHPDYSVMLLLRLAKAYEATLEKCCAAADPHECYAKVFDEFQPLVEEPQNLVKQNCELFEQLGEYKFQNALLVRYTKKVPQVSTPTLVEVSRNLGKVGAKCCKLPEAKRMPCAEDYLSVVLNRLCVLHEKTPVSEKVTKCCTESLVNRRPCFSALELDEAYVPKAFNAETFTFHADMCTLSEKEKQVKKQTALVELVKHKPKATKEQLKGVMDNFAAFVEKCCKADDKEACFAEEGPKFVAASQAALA

B1: CNG-CD3-1 scFv construct (scFv)
scFv: DIVMTQSPDSLAVSLGERATINCKSSQSLLNARTGKNYLAWYQQKPGQPPKLLIYWASTRESGVPDRFSGSGSGTDFTLTISSLQAEDVAVYYCKQSYSRRTFGGGTKVEIKGGGGSGGGGSGGGGSGGGGSQVQLVQSGAEVKKPGASVKVSCKASGFNIKDYYMHWVRQAPGQRLEWMGWIDLENANTIYDAKFQGRVTITRDTSASTAYMELSSLRSEDTAVYYCARDAYGRYFYDVWGQGTLVTVSS
Usually Kd stands for the free concentration of one partner at which half of the binding sites on the other are occupied at equilibrium, for simple one-to-one binding. With B1, the figures for the Kd with human CD3 [1], in the test with human CD3 [2] and with human CD3 [3] were 4.4 nM, 1.9 nM and 1.6 nM, respectively.

B2: CNG-CD3-3 scFv construct (scFv)
scFv: DIVMTQSPDSLAVSLGERATINCKSSQSLLNARTGKNYLAWYQQKPGQPPKLLIYWASTRESGVPDRFSGSGSGTDFTLTISSLQAEDVAVYYCKQSYSLRTFGGGTKVEIKGGGGSGGGGSGGGGSGGGGSQVQLVQSGAEVKKPGASVKVSCKASGFNIKDYYMHWVRQAPGQRLEWMGWIDLEEGNTIYDAKFQGRVTITRDTSASTAYMELSSLRSEDTAVYYCARDAYGRYFYDVWGQGTLVTVSS
For B2, the results for the Kd with human CD3 [1] and with human CD3 [2] were 54 nM and 26 nM, respectively.

B3: SEQ ID NO 9 (scFv)
scFv: QVQLVQSGAEVKKPGASVKVSCKASGYTFTDYIMHWVRQAPGQGLEWMGYINPYNDGSKYTEKFQGRVTMTSDTSISTAYMELSRLRSDDTAVYYCARGTYYYGPQLFDYWGQGTTVTVSSGGGGSGGGGSGGGGSDIVMTQTPLSLSVTPGQPASISCKSSQSLETSTGTTYLNWYLQKPGQSPQLLIYRVSKRFSGVPDRFSGSGSGTDFTLKISRVEAEDVGVYYCLQLLEDPYTFGQGTKLEIK
notes: its limits are my reading; also called anti-CD19 scFv of tAb0027 to tAb0032
With B3, the results for the Kd in test [4] and in [5] were 5 nM and 7 nM, respectively.

B4: SEQ ID NO 18 (scFv)
scFv: QVQLQESGPGLVKPSQTLSLTCTVSGGSISTSGMGVGWIRQHPGKGLEWIGHIWWDDDKRYNPALKSRVTISVDTSKNQFSLKLSSVTAADTAVYYCARMELWSYYFDYWGQGTLVTVSSGGGGSGGGGSGGGGSEIVLTQSPATLSLSPGERATLSCSASSSVSYMHWYQQKPGQAPRLLIYDTSKLASGIPARFSGSGSGTDFTLTISSLEPEDFAVYYCFQGSVYPFTFGQGTKLEIKR
notes: its limits are my reading; also called anti-CD19 scFv of tAb0033 to tAb0038
Regarding B4, the values for the Kd in [4] and in test [5] were 15 nM and 11 nM, respectively.

B5: CNG-HSA-106 (VHH)
VHH: KVQLLESGGGLVQPGGSLRLSCAASGFTFSSFGMSWVRQAPGKGLEWVSSISGSGSDTLYADSVRGRFTISRDNSKNTLYLQMDSLRAEDTAVYYCTIGGSRSISSQGTLVTVSS
The term koff denotes the first-order rate constant of dissociation. In the case of B5, the “Ratio of MSA-KD to HSA-KD” value with mouse serum albumin [6] was determined as 3.41. The Kd with cynomolgus serum albumin was determined as 14.4 nM; in the test with human serum albumin, 17 nM; with mouse serum albumin [7] it was 57.8 nM. The koff with cynomolgus serum albumin worked out at 0.00238 s⁻¹; with human serum albumin, 0.00297 s⁻¹; with mouse serum albumin [7] it was 0.0124 s⁻¹. Besides, the binding result with protein A is “no binding”.
